# No end group written: not given here. *: point of attachment. For = O=C*
# B1: fMLFFGGK (peptide)
# peptide: For-MLFFGGK
# notes: Synthesized by Commonwealth Biotechnologies; also called non-fluorescent ligand
# B2: FPR-GFP fusion protein (receptor)
# chain: not shown
# notes: also called R^F; receptor-GFP fusion protein
# B3: formyl-MLFK-FITC (peptide)
# peptide: For-MLFK
# modifications: also: FITC conjugate, site not given here
# notes: all other places print fMLFK-FITC; also called fMLFK-FITC; fluorescent ligand
# B4: formyl peptide receptor (FPR), wild type, detergent-solubilized (receptor, human, UniProt P21462 1-350, looked up)
# chain: METNSSLPTNISGGTPAVSAGYLFLDIITYLVFAVTFVLGVLGNGLVIWVAGFRMTHTVTTISYLNLAVADFCFTSTLPFFMVRKAMGGHWPFGWFLCKFVFTIVDINLFGSVFLIALIALDRCVCVLHPVWTQNHRTVSLAKKVIIGPWVMALLLTLPVIIRVTTVPGKTGTVACTFNFSPWTNDPKERINVAVAMLTVRGIIRFIIGFSAPMSIVAVSYGLIATKIHKQGLIKSSRPLRVLSFVAAAFFLCWSPYQVVALIATVRIRELLQGMYKEIGIAVDVTSALAFFNSCLNPMLYVFMGQDFRERLIHALPASLERALTEDSTQTSDTATNSTLPSAEVELQAK
# notes: Used as a crude dodecyl maltoside extract of U937 membranes, not purified; In ternary complex assays it is occupied by the fluorescent ligand L^F; also called wild type receptor; soluble FPR
# B5: FPR-Giα2 fusion protein (receptor, human;rat)
# chain: METNSSLPTNISGGTPAVSAGYLFLDIITYLVFAVTFVLGVLGNGLVIWVAGFRMTHTVTTISYLNLAVADFCFTSTLPFFMVRKAMGGHWPFGWFLCKFVFTIVDINLFGSVFLIALIALDRCVCVLHPVWTQNHRTVSLAKKVIIGPWVMALLLTLPVIIRVTTVPGKTGTVACTFNFSPWTNDPKERINVAVAMLTVRGIIRFIIGFSAPMSIVAVSYGLIATKIHKQGLIKSSRPLRVLSFVAAAFFLCWSPYQVVALIATVRIRELLQGMYKEIGIAVDVTSALAFFNSCLNPMLYVFMGQDFRERLIHALPASLERALTEDSTQTSDTATNSTLPSAEVELQAKAAAMGCTVSAEDKAAAERSKMIDKNLREDGEKAAREVKLLLLGAGESGKSTIVKQMKIIHEDGYSEEECRQYRAVVYSNTIQSIMAIVKAMGNLQIDFADPQRADDARQLFALSCAAEEQGMLPEDLSGVIRRLWADHGVQACFGRSREYQLNDSAAYYLNDLERIAQSDYIPTQQDVLRTRVKTTGIVETHFTFKDLHFKMFDVGGQRSERKKWIHCFEGVTAIIFCVALSAYDLVLAEDEEMNRMHESMKLFDSICNNKWFTDTSIILFLNKKDLFEEKITQSPLTICFPEYTGANKYDEAASYIQSKFEDLNKRKDTKEIYTHFTCATDTKNVQFVFDAVTDVIIKNNLKDCGLF
# notes: Solubilized from membranes; in the assays occupied by L^F (fMLFK-FITC), which gives the signal; also called FPR-αi2; FPR-Gαi2
# Experiments:
# FPR-GFP fusion protein = target: B2; assay: flow cytometry, LR^FG assembly on αβγ DCNi beads, L varied; receptor depletes the ligand, so the filing says that the affinity of L for R^F is not revealed (FIG. 12C)
# Protocol: Standard LRG Assembly Assay. […] Each mixture was mixed by pipetting to ensure a uniform starting suspension of the beads in 96 V-well plates (Costar), and then mixed at low speed on a vortex mixer at 7° for two hours. The 10 μl assays were individually brought to 200 μl with 0.1% dodecyl maltoside in buffer A in 12×75 mm tubes for flow cytometric measurement of fluorescence of the beads. LRG assembly was defined as the difference between fluorescence without GTPγS and that with GTPγS. All determinations were done in duplicate.
# [1] = target: T1, G protein heterotrimer αi3β1H6γ2 (human, UniProt P62873 2-340; P59768 2-68); assay: flow cytometry, LR^FG assembly on αβγ DCNi beads against GTPγS background
# Protocol: (§1) Each mixture was mixed by pipetting to ensure a uniform starting suspension of the beads in 96 V-well plates (Costar), and then mixed at low speed on a vortex mixer at 7° for two hours. The 10 μl assays were individually brought to 200 μl with 0.1% dodecyl maltoside in buffer A in 12×75 mm tubes for flow cytometric measurement of fluorescence of the beads. LRG assembly was defined as the difference between fluorescence without GTPγS and that with GTPγS. All determinations were done in duplicate.
# [2] = target: T1, G protein heterotrimer αi3β1H6γ2; assay: flow cytometry, LR^FG assembly on αβγ DCNi beads, FPR-GFP varied with saturating fMLFFGGK; binding nearly linear over the range (FIG. 12D)
# [3] = target: B4; assay: spectrofluorimetry, solubilized FPR, free ligand quenched with anti-FITC antibody, ligand-binding curve of FIG. 8B
# Protocol: Fluorescence was measured with an SLM 8000 spectrofluorimeter (SLM Instruments, Inc.) using the photon counting mode. The sample holder was fitted with a cylindrical cuvette adapter, which allowed the use of 200 µl samples in 7 mm×45 mm cylindrical cuvettes (Sienco; Wheat Ridge, Colo.), stirred with 2×5 mm stir bars (Bel-Art). […] Emission was monitored using a 520+/−10 nm filter (Corion) and a 500 nm long-pass filter (Kopp; Pittsburg, Pa.). Additions to samples during kinetic measurements were made through an injection port on the top of the sample holder with 10 µl glass syringes (Hamilton; Reno, Nev.).
# [4] = target: T2, formyl peptide receptor with a C-terminal hexahistidine tag (FPR:C-H6) (human, UniProt P21462 1-350); assay: flow cytometry, hexahistidine-tagged FPR on DCNi beads, L^F titrated (FIG. 9E)
# T2 construct: Solubilized from membranes and captured on dextran chelate nickel (DCNi) beads; also called C-H6:FPR
# T2 sequence: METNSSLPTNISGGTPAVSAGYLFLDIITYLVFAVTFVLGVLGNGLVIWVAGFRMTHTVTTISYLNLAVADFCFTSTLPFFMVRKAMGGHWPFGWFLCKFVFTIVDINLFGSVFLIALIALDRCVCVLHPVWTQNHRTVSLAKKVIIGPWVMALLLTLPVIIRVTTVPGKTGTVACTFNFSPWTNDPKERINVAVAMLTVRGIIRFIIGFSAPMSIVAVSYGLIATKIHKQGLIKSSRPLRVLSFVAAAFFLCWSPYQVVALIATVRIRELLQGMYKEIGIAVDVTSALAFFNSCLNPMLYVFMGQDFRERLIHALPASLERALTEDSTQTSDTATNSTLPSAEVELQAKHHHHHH
# Protocol: The initial bead fluorescence was measured for twenty seconds, then an anti-FITC antibody was mixed with the beads, and the decrease in bead fluorescence was measured for another 100 seconds. The line shown is a best fit to a plateau, followed by an exponential decrease to the bottom.
# β1H6γ2 dimer [5] = target: T3, β1H6γ2 dimer (human, UniProt P62873 2-340; P59768 2-68); assay: flow cytometry of DCNi beads coated with βγ, 60 nM FPR and 75 nM L^F, with 0.1 mM GTPγS only background fluorescence
# T3 construct: Purified from Sf9 cells and held on DCNi beads by the hexahistidine tag; also called βγ; Gβγ
# Protocol: as §1
# (§2) The 10 μl assay was then diluted to 200 μl for spectrofluorimetric measurement. […] Uncoated beads were used in an assembly assay, bar 1, or were coated with G protein βγ only and used in an assembly assay, bar 2.
# [6] = target: T1, G protein heterotrimer αi3β1H6γ2; assay: flow cytometry, αi3β1H6γ2 on DCNi beads, 60 nM FPR with 75 nM L^F; uncoated beads about 9,000 fluorophores
# Protocol: as §1, §2
# [7] = target: T1, G protein heterotrimer αi3β1H6γ2; assay: flow cytometry, L^FRG assembly on αi3β1H6γ2 DCNi beads, more nearly optimal conditions
# β1H6γ2 dimer [8] = target: T3, β1H6γ2 dimer; assay: flow cytometry, β1H6γ2 on DCNi beads, 1 µM GTP against GTPγS background
# Protocol: as §1
# T1 sequence (P62873 2-340, chain 1 of 2): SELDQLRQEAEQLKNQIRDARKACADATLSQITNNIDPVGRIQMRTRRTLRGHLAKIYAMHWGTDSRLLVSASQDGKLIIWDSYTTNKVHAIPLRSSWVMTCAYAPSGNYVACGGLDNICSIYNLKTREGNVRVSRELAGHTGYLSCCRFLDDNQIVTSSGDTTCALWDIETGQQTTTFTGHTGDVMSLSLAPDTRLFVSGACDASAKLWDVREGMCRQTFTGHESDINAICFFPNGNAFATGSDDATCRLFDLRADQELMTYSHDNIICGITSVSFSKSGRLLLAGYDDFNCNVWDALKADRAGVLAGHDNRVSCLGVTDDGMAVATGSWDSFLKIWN
# T1 sequence (P59768 other isoform, or with tags, fused parts or gaps, chain 2 of 2): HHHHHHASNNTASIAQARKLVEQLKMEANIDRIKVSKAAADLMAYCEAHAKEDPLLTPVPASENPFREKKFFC
# T3 sequence (P62873 2-340, chain 1 of 2): as the sequence (P62873 2-340, chain 1 of 2) above
# T3 sequence (P59768 other isoform, or with tags, fused parts or gaps, chain 2 of 2): as the sequence (P59768 other isoform, or with tags, fused parts or gaps, chain 2 of 2) above
binder,measurement,setting,value
B1,EC50,FPR-GFP fusion protein,115 nM
B2,total binding to background ratio,[1],4.9 ratio
same,Kd,[2],1000 nM
B3,Kd,[3],4.8 nM
same,Kd,[4],~8 nM
B4,binding result,β1H6γ2 dimer [5],no binding
same,bead fluorescence against uncoated beads,[6],3 fold
same,signal to background,[7],≤ 4 ratio
B5,total fluorescence to background ratio,β1H6γ2 dimer [8],2.7 ratio

# Source: patent US7232659 (dated 2007)
